Experimental data reported in patent US20080051562.

How the values were obtained:
[1] = target: recombinant human Thrombomodulin (soluble truncated form that lacks the putative transmembrane and the cytoplasmic domains, approximate weight 68 kD; American Diagnostica Inc.) (UniProt P07204)
[2] = tested on: TMA (truncated human thrombomodulin EGF-like domains 4-6, Met-388-Leu, C-terminal GlyGlyMet linker, expressed as an N-terminal Dsba enzyme fusion with leader sequence)
[3] = tested on: TMB (truncated human thrombomodulin derivative, EGF-like domains 4-6, Met-388-Leu, C-terminal GlyGlyMet linker with azido-methionine analog)
[4] = tested on: PEG-TMB (TMB conjugated at the C-terminal azido-methionine analog to methyl-PEG-triarylphosphine conjugate 2 by Staudinger ligation)

Sequence of recombinant human Thrombomodulin (soluble truncated form that lacks the putative transmembrane and the cytoplasmic domains, approximate weight 68 kD; American Diagnostica Inc.) (P07204 whole entry, looked up, the tested form may be a part): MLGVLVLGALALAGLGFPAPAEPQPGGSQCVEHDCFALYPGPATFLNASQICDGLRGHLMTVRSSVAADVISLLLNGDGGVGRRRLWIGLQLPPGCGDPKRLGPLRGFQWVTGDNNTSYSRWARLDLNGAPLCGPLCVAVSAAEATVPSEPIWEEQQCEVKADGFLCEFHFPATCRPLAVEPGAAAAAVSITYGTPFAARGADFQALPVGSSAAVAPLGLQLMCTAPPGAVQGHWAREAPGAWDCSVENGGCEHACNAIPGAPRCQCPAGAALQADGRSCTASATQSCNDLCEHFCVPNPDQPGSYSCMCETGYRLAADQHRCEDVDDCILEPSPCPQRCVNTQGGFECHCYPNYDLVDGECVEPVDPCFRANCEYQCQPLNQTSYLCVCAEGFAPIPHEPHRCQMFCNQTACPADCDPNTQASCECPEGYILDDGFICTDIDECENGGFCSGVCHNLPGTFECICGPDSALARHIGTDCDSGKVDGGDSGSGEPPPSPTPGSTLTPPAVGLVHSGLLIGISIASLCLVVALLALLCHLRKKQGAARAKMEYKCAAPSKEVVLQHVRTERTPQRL

Question: How did the KM (µM) for protein C activation by the TM-thrombin complex [1] turn out when “human alpha thrombin (Haematologic Technologies Inc.)” was run?
Answer: 0.7 µM

Question: And the kcat (min^-1) for protein C activation by the TM-thrombin complex [1]?
Answer: 0.14 min⁻¹

Question: And the kcat/KM (min^-1 · µM^-1) for protein C activation by the TM-thrombin complex (min^-1 · µM^-1) [1]?
Answer: 0.21

Question: And the KM (µM) for protein C activation by the TM-thrombin complex [2]?
Answer: 0.9 µM

Question: What about the kcat (min^-1) for protein C activation by the TM-thrombin complex [2] of the same substance?
Answer: 0.22 min⁻¹

Question: And the kcat/KM (min^-1 · µM^-1) for protein C activation by the TM-thrombin complex (min^-1 · µM^-1) [2]?
Answer: 0.26

Question: What about the KM (µM) for protein C activation by the TM-thrombin complex [3] of the same substance?
Answer: 1 µM

Question: And the kcat (min^-1) for protein C activation by the TM-thrombin complex [3]?
Answer: 0.16 min⁻¹

Question: What about the kcat/KM (min^-1 · µM^-1) for protein C activation by the TM-thrombin complex (min^-1 · µM^-1) [3] of the same substance?
Answer: 0.16

Question: And the KM (µM) for protein C activation by the TM-thrombin complex [4]?
Answer: 1 µM

Question: What about the kcat (min^-1) for protein C activation by the TM-thrombin complex [4] of the same substance?
Answer: 0.2 min⁻¹

Question: And the kcat/KM (min^-1 · µM^-1) for protein C activation by the TM-thrombin complex (min^-1 · µM^-1) [4]?
Answer: 0.2
